Three molecules from publication PMC6028546, “Control of mitotic chromosome condensation by the fission yeast transcription factor Zas1” can be followed below.

Data set [1] addresses Zas1 (recombinant, from the short zas1 cDNA ORF) (S. pombe). Kind of data set: SEC-MALS; analytical SEC coupled to multiangle light scattering of purified Zas1; two independent chromatography runs. Background: In gel filtration, larger molecules generally elute earlier.
Data set [2] deals with T1, Zas1 (short cDNA ORF, two zinc fingers) (Schizosaccharomyces pombe, UniProt Q9UTS5-2 1-845).
T1 sequence: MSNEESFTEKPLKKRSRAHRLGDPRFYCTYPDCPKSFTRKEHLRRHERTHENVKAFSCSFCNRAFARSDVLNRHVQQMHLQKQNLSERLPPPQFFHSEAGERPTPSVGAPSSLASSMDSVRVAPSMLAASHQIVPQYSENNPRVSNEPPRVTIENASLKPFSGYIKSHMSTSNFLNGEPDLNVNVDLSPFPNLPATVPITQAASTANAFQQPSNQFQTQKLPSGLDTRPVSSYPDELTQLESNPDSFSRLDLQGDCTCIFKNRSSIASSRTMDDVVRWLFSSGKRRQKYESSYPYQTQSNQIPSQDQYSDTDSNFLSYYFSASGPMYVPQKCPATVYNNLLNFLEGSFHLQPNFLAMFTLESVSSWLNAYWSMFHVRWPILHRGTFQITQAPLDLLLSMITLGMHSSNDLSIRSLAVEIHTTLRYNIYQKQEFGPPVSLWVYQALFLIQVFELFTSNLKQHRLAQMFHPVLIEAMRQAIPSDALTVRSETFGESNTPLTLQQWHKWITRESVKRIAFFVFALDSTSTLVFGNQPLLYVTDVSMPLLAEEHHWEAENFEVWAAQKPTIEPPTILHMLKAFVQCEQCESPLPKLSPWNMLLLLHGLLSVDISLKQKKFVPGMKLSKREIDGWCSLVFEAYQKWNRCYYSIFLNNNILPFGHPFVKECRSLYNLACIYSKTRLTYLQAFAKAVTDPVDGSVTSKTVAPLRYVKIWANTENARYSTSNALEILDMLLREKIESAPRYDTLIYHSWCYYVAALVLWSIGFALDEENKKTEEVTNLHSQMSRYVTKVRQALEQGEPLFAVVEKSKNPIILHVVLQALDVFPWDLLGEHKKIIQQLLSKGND
Kind of data set: EMSA; 20 uM ZnCl2, 5 mM MgCl2; EMSA: 10 mM Tris-HCl pH 8.0, 125 mM NaCl, 5 mM MgCl2, 20 uM ZnCl2; 400 nM DNA, 0/200/400/800 nM Zas1; 90 min on ice; 1.8% agarose, Tris-acetate pH 8.7, 6 C. Particulars: protein: recombinant; chain copies: 2; label: 5' 6-FAM on strand 1; blunt.

With “Zas1 (recombinant, from the short zas1 cDNA ORF) (natural protein)”, in data set [1], the stoichiometry N – broadly, the number of molecules, sites or subunits per partner or assembly – was determined as 2.

B1: Ppob1 (dsDNA)
DNA 1: AAAGCCCCCACGAAGGTCGTCTTTCCCCACATAGATTATT
DNA 2: AATAATCTATGTGGGGAAAGACGACCTTCGTGGGGGCTTT
With B1, the binding result in data set [2] is “binds”.

B2: Pcnd1 (dsDNA)
DNA 1: AATGGACCCCCACACAGGACATATAGGTGGGGTTATTGT
DNA 2: ACAATAACCCCACCTATATGTCCTGTGTGGGGGTCCATT
In the case of B2, in data set [2], the binding result is listed as “binds”.
